In the supplement of paper PMC9112550, “Optimization of the antimicrobial peptide Bac7 by deep mutational scanning” (BMC Biology, 2022):

Tested on: Escherichia coli TOP10
Assay: shrunken log2 fold change of peptide-encoding DNA abundance (4.5 h post-induction vs induction); higher = less antimicrobial activity (less host growth inhibition)
Conditions: time post-induction: 4.5 h; library: site-saturation at positions 5, 18, 19, 20
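Further: peptides expressed intracellularly from a pBAD plasmid library in pooled LB shake-flask culture, induced with 0.3% L-arabinose, DNA abundance read by NGS, three biological replicates, DESeq2 with apeglm shrinkage.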

RRIRWRPPRLPRPRPRPQQDPRP
shrunken log2 fold change: 0.0825

RRIRFRPPRLPRPRPRPCIPPRP
shrunken log2 fold change: 0.0633

RRIRIRPPRLPRPRPRPVTDPRP
shrunken log2 fold change: -0.00257

RRIRYRPPRLPRPRPRPKFHPRP
shrunken log2 fold change: -1.15

RRIRARPPRLPRPRPRPKEPPRP
shrunken log2 fold change: 0.991

RRIRVRPPRLPRPRPRPPPFPRP
shrunken log2 fold change: 0.375

RRIRQRPPRLPRPRPRPYHVPRP
shrunken log2 fold change: -0.00172

RRIRIRPPRLPRPRPRPDQDPRP
shrunken log2 fold change: -0.162

RRIRCRPPRLPRPRPRPQQWPRP
shrunken log2 fold change: -0.0268

RRIRPRPPRLPRPRPRPDYGPRP
shrunken log2 fold change: 0.014

RRIRHRPPRLPRPRPRPIFHPRP
shrunken log2 fold change: -0.155

RRIRRRPPRLPRPRPRPQYQPRP
shrunken log2 fold change: -0.207

RRIRQRPPRLPRPRPRPLRGPRP
shrunken log2 fold change: 0.664

RRIRARPPRLPRPRPRPPRNPRP
shrunken log2 fold change: 0.965

RRIRVRPPRLPRPRPRPPSTPRP
shrunken log2 fold change: 0.238

RRIRMRPPRLPRPRPRPGLRPRP
shrunken log2 fold change: 1.15

RRIRHRPPRLPRPRPRPHMYPRP
shrunken log2 fold change: -0.0666

RRIRARPPRLPRPRPRPWVLPRP
shrunken log2 fold change: -0.0908

RRIRQRPPRLPRPRPRPTVNPRP
shrunken log2 fold change: -0.0853

RRIRRRPPRLPRPRPRPLKQPRP
shrunken log2 fold change: 0.223

RRIRTRPPRLPRPRPRPDMSPRP
shrunken log2 fold change: -0.0305

RRIRPRPPRLPRPRPRPDWRPRP
shrunken log2 fold change: 0.321

RRIRMRPPRLPRPRPRPHPQPRP
shrunken log2 fold change: 0.427

RRIRFRPPRLPRPRPRPKEMPRP
shrunken log2 fold change: -0.0141

RRIRLRPPRLPRPRPRPYTAPRP
shrunken log2 fold change: -0.863

RRIRSRPPRLPRPRPRPRQRPRP
shrunken log2 fold change: 0.293

RRIRIRPPRLPRPRPRPAAWPRP
shrunken log2 fold change: 0.112

RRIRQRPPRLPRPRPRPCKHPRP
shrunken log2 fold change: -1.29

RRIRSRPPRLPRPRPRPQFVPRP
shrunken log2 fold change: -0.184

RRIRWRPPRLPRPRPRPQAYPRP
shrunken log2 fold change: 0.0869

RRIRNRPPRLPRPRPRPAPFPRP
shrunken log2 fold change: -0.299

RRIRWRPPRLPRPRPRPMEKPRP
shrunken log2 fold change: 0.0685

RRIRSRPPRLPRPRPRPHMNPRP
shrunken log2 fold change: -0.548

RRIRDRPPRLPRPRPRPYRCPRP
shrunken log2 fold change: -0.0315

RRIRQRPPRLPRPRPRPCGGPRP
shrunken log2 fold change: 0.257

RRIRPRPPRLPRPRPRPVGMPRP
shrunken log2 fold change: -0.0812

RRIRWRPPRLPRPRPRPKVQPRP
shrunken log2 fold change: 0.00116

RRIRIRPPRLPRPRPRPGCHPRP
shrunken log2 fold change: -0.602

RRIRERPPRLPRPRPRPEWLPRP
shrunken log2 fold change: -0.062

RRIRYRPPRLPRPRPRPSADPRP
shrunken log2 fold change: -0.18

RRIRSRPPRLPRPRPRPNPAPRP
shrunken log2 fold change: -0.0743

RRIRIRPPRLPRPRPRPKMSPRP
shrunken log2 fold change: -0.327

RRIRLRPPRLPRPRPRPVCRPRP
shrunken log2 fold change: 0.091

RRIRKRPPRLPRPRPRPQSIPRP
shrunken log2 fold change: 0.147

RRIRPRPPRLPRPRPRPQFPPRP
shrunken log2 fold change: 0.0341

RRIRMRPPRLPRPRPRPKDIPRP
shrunken log2 fold change: -0.0934

RRIRSRPPRLPRPRPRPNVYPRP
shrunken log2 fold change: -0.257

RRIRYRPPRLPRPRPRPLVHPRP
shrunken log2 fold change: 0.0162

RRIRMRPPRLPRPRPRPFGAPRP
shrunken log2 fold change: 0.329

RRIRGRPPRLPRPRPRPQCSPRP
shrunken log2 fold change: -0.0401

RRIRWRPPRLPRPRPRPPTPPRP
shrunken log2 fold change: 1.4

RRIRSRPPRLPRPRPRPCQCPRP
shrunken log2 fold change: 0.017

RRIRARPPRLPRPRPRPLQWPRP
shrunken log2 fold change: 0.539

RRIRLRPPRLPRPRPRPYSNPRP
shrunken log2 fold change: -0.212

RRIRERPPRLPRPRPRPELDPRP
shrunken log2 fold change: 0.0389

RRIRCRPPRLPRPRPRPDVPPRP
shrunken log2 fold change: -0.0242

RRIRNRPPRLPRPRPRPDCTPRP
shrunken log2 fold change: 0.0531

RRIRLRPPRLPRPRPRPTDSPRP
shrunken log2 fold change: 2.57

RRIRVRPPRLPRPRPRPFYQPRP
shrunken log2 fold change: -0.537

RRIRPRPPRLPRPRPRPICHPRP
shrunken log2 fold change: -0.0574

RRIRHRPPRLPRPRPRPELRPRP
shrunken log2 fold change: 0.0303

RRIRFRPPRLPRPRPRPFEHPRP
shrunken log2 fold change: -0.0558

RRIRNRPPRLPRPRPRPFAPPRP
shrunken log2 fold change: -0.0816

RRIRIRPPRLPRPRPRPPNFPRP
shrunken log2 fold change: -0.108

RRIRDRPPRLPRPRPRPGKYPRP
shrunken log2 fold change: -0.124

RRIRGRPPRLPRPRPRPNKKPRP
shrunken log2 fold change: 0.0152

RRIRHRPPRLPRPRPRPITCPRP
shrunken log2 fold change: -0.0107

RRIRHRPPRLPRPRPRPGPCPRP
shrunken log2 fold change: -0.254

RRIRYRPPRLPRPRPRPAEDPRP
shrunken log2 fold change: -0.176

RRIRKRPPRLPRPRPRPCGAPRP
shrunken log2 fold change: 0.45

RRIRPRPPRLPRPRPRPTRGPRP
shrunken log2 fold change: 0.543

RRIRGRPPRLPRPRPRPKRTPRP
shrunken log2 fold change: 1.01

RRIRRRPPRLPRPRPRPDRQPRP
shrunken log2 fold change: -0.114

RRIRCRPPRLPRPRPRPLFPPRP
shrunken log2 fold change: -0.2

RRIRVRPPRLPRPRPRPKQSPRP
shrunken log2 fold change: 0.0123

RRIRYRPPRLPRPRPRPWWIPRP
shrunken log2 fold change: -0.00327

RRIRERPPRLPRPRPRPTHRPRP
shrunken log2 fold change: 0.243

RRIRRRPPRLPRPRPRPSVTPRP
shrunken log2 fold change: -0.041

RRIRARPPRLPRPRPRPMLWPRP
shrunken log2 fold change: 0.183

RRIRMRPPRLPRPRPRPMHRPRP
shrunken log2 fold change: -0.156

RRIRHRPPRLPRPRPRPQDKPRP
shrunken log2 fold change: -0.355

RRIRTRPPRLPRPRPRPMLIPRP
shrunken log2 fold change: 0.0601

RRIRCRPPRLPRPRPRPFYVPRP
shrunken log2 fold change: -0.825

RRIRRRPPRLPRPRPRPTIIPRP
shrunken log2 fold change: -0.159

RRIRSRPPRLPRPRPRPHNNPRP
shrunken log2 fold change: -0.751

RRIRGRPPRLPRPRPRPRIWPRP
shrunken log2 fold change: 0.836

RRIRERPPRLPRPRPRPHKTPRP
shrunken log2 fold change: 0.0137

RRIRRRPPRLPRPRPRPMYSPRP
shrunken log2 fold change: -0.0989

RRIRGRPPRLPRPRPRPWKLPRP
shrunken log2 fold change: 0.0361

RRIRDRPPRLPRPRPRPGCSPRP
shrunken log2 fold change: 0.278

RRIRSRPPRLPRPRPRPSEQPRP
shrunken log2 fold change: -0.0884

RRIRIRPPRLPRPRPRPCLYPRP
shrunken log2 fold change: -0.248

RRIRYRPPRLPRPRPRPEIQPRP
shrunken log2 fold change: 0.0356

RRIRERPPRLPRPRPRPTKYPRP
shrunken log2 fold change: -0.568

RRIRKRPPRLPRPRPRPYDLPRP
shrunken log2 fold change: 0.115

RRIRTRPPRLPRPRPRPLANPRP
shrunken log2 fold change: -0.105

RRIRMRPPRLPRPRPRPLNYPRP
shrunken log2 fold change: -0.124

RRIRSRPPRLPRPRPRPSQSPRP
shrunken log2 fold change: -0.242

RRIRWRPPRLPRPRPRPSPVPRP
shrunken log2 fold change: -0.0363

RRIRHRPPRLPRPRPRPVCTPRP
shrunken log2 fold change: -0.108

RRIRRRPPRLPRPRPRPFALPRP
shrunken log2 fold change: -0.00461

RRIRCRPPRLPRPRPRPEAGPRP
shrunken log2 fold change: 0.4

RRIRDRPPRLPRPRPRPIDPPRP
shrunken log2 fold change: -0.107

RRIRNRPPRLPRPRPRPYVNPRP
shrunken log2 fold change: -0.121

RRIRERPPRLPRPRPRPANFPRP
shrunken log2 fold change: -0.163

RRIRIRPPRLPRPRPRPNTPPRP
shrunken log2 fold change: -0.487

RRIRNRPPRLPRPRPRPIWAPRP
shrunken log2 fold change: 0.0814

RRIRMRPPRLPRPRPRPCYPPRP
shrunken log2 fold change: -0.352

RRIRARPPRLPRPRPRPPGQPRP
shrunken log2 fold change: 0.0736

RRIRGRPPRLPRPRPRPNCRPRP
shrunken log2 fold change: 0.0979

RRIRCRPPRLPRPRPRPQQAPRP
shrunken log2 fold change: 0.239

RRIRFRPPRLPRPRPRPLNQPRP
shrunken log2 fold change: -0.282

RRIRMRPPRLPRPRPRPFMIPRP
shrunken log2 fold change: -0.0423

RRIRKRPPRLPRPRPRPCGTPRP
shrunken log2 fold change: -0.0177

RRIRFRPPRLPRPRPRPMMSPRP
shrunken log2 fold change: -0.0228

RRIRYRPPRLPRPRPRPALYPRP
shrunken log2 fold change: -0.284

RRIRYRPPRLPRPRPRPLLFPRP
shrunken log2 fold change: -0.614

RRIRRRPPRLPRPRPRPERKPRP
shrunken log2 fold change: 0.0556

RRIRRRPPRLPRPRPRPHFIPRP
shrunken log2 fold change: -0.0325

RRIRGRPPRLPRPRPRPVYSPRP
shrunken log2 fold change: -0.36

RRIRYRPPRLPRPRPRPFCRPRP
shrunken log2 fold change: -0.228

RRIRLRPPRLPRPRPRPWNQPRP
shrunken log2 fold change: 0.0295

RRIRKRPPRLPRPRPRPCGDPRP
shrunken log2 fold change: 0.466

RRIRTRPPRLPRPRPRPPEYPRP
shrunken log2 fold change: 0.0238

RRIRARPPRLPRPRPRPTRQPRP
shrunken log2 fold change: 0.982

RRIRVRPPRLPRPRPRPMVNPRP
shrunken log2 fold change: -0.158

RRIRSRPPRLPRPRPRPTQYPRP
shrunken log2 fold change: -0.0116

RRIRHRPPRLPRPRPRPIYGPRP
shrunken log2 fold change: -0.0133

RRIRMRPPRLPRPRPRPYQMPRP
shrunken log2 fold change: 0.119

RRIRRRPPRLPRPRPRPLVDPRP
shrunken log2 fold change: 0.106

RRIRVRPPRLPRPRPRPMTGPRP
shrunken log2 fold change: -0.0967

RRIRFRPPRLPRPRPRPDPAPRP
shrunken log2 fold change: 0.266

RRIRNRPPRLPRPRPRPFRLPRP
shrunken log2 fold change: -0.505

RRIRHRPPRLPRPRPRPLSQPRP
shrunken log2 fold change: -0.0443

RRIRERPPRLPRPRPRPEAYPRP
shrunken log2 fold change: -0.0132

RRIRGRPPRLPRPRPRPCGLPRP
shrunken log2 fold change: 0.641

RRIRWRPPRLPRPRPRPKYHPRP
shrunken log2 fold change: 0.185

RRIRFRPPRLPRPRPRPKSTPRP
shrunken log2 fold change: -0.3

RRIRCRPPRLPRPRPRPVGHPRP
shrunken log2 fold change: 0.0304

RRIRFRPPRLPRPRPRPNMMPRP
shrunken log2 fold change: -0.444

RRIRDRPPRLPRPRPRPTGMPRP
shrunken log2 fold change: -0.00655

RRIRGRPPRLPRPRPRPRVKPRP
shrunken log2 fold change: 0.856

RRIRKRPPRLPRPRPRPIREPRP
shrunken log2 fold change: 0.057

RRIRFRPPRLPRPRPRPANLPRP
shrunken log2 fold change: -0.296

RRIRARPPRLPRPRPRPFDHPRP
shrunken log2 fold change: -0.394

RRIRQRPPRLPRPRPRPNHKPRP
shrunken log2 fold change: -0.493

RRIRNRPPRLPRPRPRPHWCPRP
shrunken log2 fold change: 0.0251

RRIRERPPRLPRPRPRPYTLPRP
shrunken log2 fold change: -0.338

RRIRERPPRLPRPRPRPWMHPRP
shrunken log2 fold change: -0.126

RRIRKRPPRLPRPRPRPPVVPRP
shrunken log2 fold change: 0.453
